Data: patent US20190241895

Tested on: secretory immunoglobulin A (sIgA) (Homo sapiens)
Test: SPR
[1] = KS9 (adenine-residue-modified T) at the T after GCAATCTCCCTAATC, 3' poly(dA)20 added for SPR, SPR buffer 1 mM MgCl2 pH 7.4
[2] = NG7 (guanine-residue-modified T) at underlined T i.e. T after GCAATCTCCCTAATC, 3' poly(dA)20 added for SPR, SPR buffer 1 mM MgCl2 pH 7.4
[3] = KS9 (adenine-residue-modified T) at T after the 5' primer region GGTTTGGACGCAATCTCCCTAATC, 3' poly(dA)20 added for SPR, SPR buffer 1 mM MgCl2 pH 7.4
[4] = MK4 (adenine-residue-modified dA) at A after the 5' primer region GGTTTGGACGCAATCTCCCTAATC, 3' poly(dT)20 added for SPR, SPR buffer 1 mM MgCl2 pH 7.4
[5] = NG7 (guanine-residue-modified T) at T after the 5' primer region GGTTTGGACGCAATCTCCCTAATC, 3' poly(dA)20 added for SPR, SPR buffer 1 mM MgCl2 pH 7.4

## GCAATCTCCCTAATCAAAGATATGCTAAGATAGATAGTTTGGCTTG [KS9 aptamer SEQ 19]
[1]
  Kd: 8 nM

## GCAATCTCCCTAATCGTATATCAAGCAGATGTGTTCACTTGGGGAG [KS9 aptamer SEQ 17]
[1]
  Kd: 12.9 nM

## GCAATCTCCCTAATCTGCTGATGTTTGTATTTCAAATTAGC [NG7 aptamer SEQ 15]
[2]
  Kd: 2.59 nM

## GCAATCTCCCTAATCTGCTGATGTTTGTATTTCAAATTAGCCGCAG [NG7 aptamer SEQ 14]
[2]
  Kd: 10 nM

## GCAATCTCCCTAATCTTTATACGTATGGACTTAGGCTTTGTTATAGAAAC [KS9 aptamer SEQ 21]
[1]
  Kd: 2.1 nM

## GGTTTGGACGCAATCTCCCTAATCAAAGATATGCTAAGATAGATAGTTTGGCTTGAAACTACAATGGGCGGGCTTATC [KS9 aptamer SEQ 9]
[3]
  Kd: 4.8 nM

## GGTTTGGACGCAATCTCCCTAATCAAGCCACGGAGAGTCCGAGGTGACCATTAAGCAGGAAACTACAATGGGCGGGCTTA [MK4 aptamer SEQ 3]
[4]
  Kd: 7.6 nM

## GGTTTGGACGCAATCTCCCTAATCACCTGTACTGGTTATTATGCCTGCCAACATGAAACTACAATGGGCGGGCTTATC [KS9 aptamer SEQ 10]
[3]
  Kd: 30.2 nM

## GGTTTGGACGCAATCTCCCTAATCAGACAATATTAGAGTGTTACCACCTGTGATGAAACTACAATGGGCGGGCTTATC [NG7 aptamer SEQ 7]
[5]
  Kd: 37.7 nM

## GGTTTGGACGCAATCTCCCTAATCAGATGATATCGAGATGCGAAGCGACCGCATGAAACTACAATGGGCGGGCTTATC [MK4 aptamer SEQ 2]
[4]
  Kd: 7.6 nM

## GGTTTGGACGCAATCTCCCTAATCCTATCTGTTTTATCAATTGTAGCAAGTTATGAAACTACAATGGGCGGGCTTATC [KS9 aptamer SEQ 12]
[3]
  Kd: 9 nM

## GGTTTGGACGCAATCTCCCTAATCGATCTAGATGGTCTCGGGTATGGCTAGATAGAAACTACAATGGGCGGGCTTATC [MK4 aptamer SEQ 4]
[4]
  Kd: 17.4 nM

## GGTTTGGACGCAATCTCCCTAATCGTATATCAAGCAGATGTGTTCACTTGGGGAGAAACTACAATGGGCGGGCTTATC [KS9 aptamer SEQ 8]
[3]
  Kd: 10 nM

## GGTTTGGACGCAATCTCCCTAATCTAAATAGATTTCACAGTGGATCCTTCAGAGGAAACTACAATGGGCGGGCTTATC [NG7 aptamer SEQ 6]
[5]
  Kd: 11.6 nM

## GGTTTGGACGCAATCTCCCTAATCTACTACGATATCCAGATGGGAAGTGACCGTGAAACTACAATGGGCGGGCTTATC [MK4 aptamer SEQ 1]
MK4 (adenine-residue-modified dA) at A after the 5' primer region GGTTTGGACGCAATCTCCCTAATC, 3' poly(dT)20 added for SPR, 40 mM HEPES, 125 mM NaCl, 5 mM KCl, 1 mM MgCl2, 0.01% Tween 20, pH 7.4
  Kd: 8.6 nM

## GGTTTGGACGCAATCTCCCTAATCTGCTGATGTTTGTATTTCAAATTAGCCGCAGAAACTACAATGGGCGGGCTTATC [NG7 aptamer SEQ 5]
[5]
  Kd: 11.8 nM

## GGTTTGGACGCAATCTCCCTAATCTTTATACGTATGGACTTAGGCTTTGTTATAGAAACTACAATGGGCGGGCTTATC [KS9 aptamer SEQ 11]
[3]
  Kd: 1.3 nM
